Experimental data as given in the supplement of paper PMC12764529.
± gives the half width of the 95% confidence interval.

Key:
[1] = folding stability dG unfold from chymotrypsin proteolysis; higher = more stable
In short: (§1)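 Only designs with AlphaFold2 dimer inter-PAE above 15 were retained; each was a mini-protein under 80 residues with no cysteine, in a PA-tagged cDNA display construct. After digestion with trypsin and chymotrypsin and sequencing, K50 was inferred by Bayesian fitting of counts, and unfolding free energy was derived per protease or combined against a sequence-predicted unfolded-state K50 and a shared folded-state K50.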

[2] = folding stability dG unfold from trypsin proteolysis; higher = more stable
In short: as §1

[3] = folding stability dG unfold (combined trypsin and chymotrypsin); higher = more stable
In short: as §1

Sequence	folding stability dG unfold [1]	folding stability dG unfold [2]	folding stability dG unfold [3]
SAGGSAGGSAKPNWVIIEMTIQIPEGDPEEIKEIMEPFGWEITGVDNNYIKVSILMPPGAKISAGGSAGGSA [r18_168_TrROS]	1.14 ± 0.043 kcal/mol	1.26 ± 0.14 kcal/mol	1.26 ± 0.25 kcal/mol
SAGGSAGGSAKPQKVELELFPNGELIIRLPETGARIRLKVEVFKDASGNPFFKLEIVDIDPSAGGSAGGSAG [r3_76_TrMRF]	2.66 ± 0.058 kcal/mol	2.48 ± 0.14 kcal/mol	2.6 ± 0.16 kcal/mol
SAGGSAGGSAKPVLEVEITVEVNGKLYKVRARVELEETPDGLVLKVEVELENGEKFEFTLKLSAGGSAGGSA [r18_54_TrROS_Hall]	5.13 ± 0.21 kcal/mol	4.42 ± 0.26 kcal/mol	5.11 ± 0.28 kcal/mol
SAGGSAGGSAKPVYKIRIVVKKDGKEFVKEIEVPEDEEEAEALAKELAKKPEVEKVEVEKVSAGGSAGGSAG [r3_310_TrROS_Hall]	1.84 ± 0.058 kcal/mol	0.739 ± 0.075 kcal/mol	1.62 ± 0.18 kcal/mol
SAGGSAGGSAKVTYTENSVTIHAKVPEKPLKIEIPNTGKVVTIDLDKEVTVTFPVPKPPDESAGGSAGGSAG [r3_185_TrMRF]	-0.454 ± 0.1 kcal/mol	-0.786 ± 0.07 kcal/mol	-0.624 ± 0.17 kcal/mol
SAGGSAGGSAKVYVNPDNNKVAVVLPPPGDSYLVLLFDPETGEVRLIEAPPEEVEELLKKGSAGGSAGGSAG [r3_162_TrMRF]	1.25 ± 0.097 kcal/mol	0.618 ± 0.077 kcal/mol	0.845 ± 0.14 kcal/mol
SAGGSAGGSAKWIYIMLPFPEGQKVEIEYPNGRKHSYEQTPDGMLMIRVRRPNAPIKIKIKSAGGSAGGSAG [r3_334_TrROS]	2.72 ± 0.23 kcal/mol	1.9 ± 0.13 kcal/mol	2.4 ± 0.25 kcal/mol
SAGGSAGGSALEIPFPIKDVKWERNPDGSRTRTFYLKNGWRASLIFNPKNGQMQIDIEPLDSAGGSAGGSAG [r3_438_TrROS]	1.57 ± 0.12 kcal/mol	1.8 ± 0.073 kcal/mol	1.81 ± 0.17 kcal/mol
SAGGSAGGSALEVPSNYLVEVRFPNETRLIPVEDLDAFFEAYPDVPWTDIRVLDPKTGKPISAGGSAGGSAG [r3_134_TrMRF]	1.923 ± 0.0098 kcal/mol	2.47 ± 0.04 kcal/mol	2.19 ± 0.032 kcal/mol
SAGGSAGGSALKNAPGPDPALLKPRPVLVIPIPKDIPLEEAEALAEIFRKLYPDVPVVLDVEGGSAGGSAGG [r6_299_TrMRF]	1.07 ± 0.072 kcal/mol	0.826 ± 0.046 kcal/mol	0.971 ± 0.05 kcal/mol
SAGGSAGGSALPTSPTYAVVKVPDKYYIVKTKVGDIIFIPDENGIPVPVKVEPFYPIAPEALSAGGSAGGSA [r18_244_TrMRF]	-0.515 ± 0.4 kcal/mol	-0.297 ± 0.16 kcal/mol	-0.258 ± 0.18 kcal/mol
SAGGSAGGSAMDAEEIADMIKEILRKQFPNVKITEITVERRPPGNYYVEARVPDGNQRTIPISAGGSAGGSA [r18_423_TrROS]	0.286 ± 0.059 kcal/mol	-0.483 ± 0.15 kcal/mol	0.115 ± 0.061 kcal/mol
SAGGSAGGSAMEINEIVKETAKKGKNLTITVKLPDGSTVTITVTPDEDVPEDLEVLEVTVKSAGGSAGGSAG [r3_421_JUSTAS]	1.78 ± 0.038 kcal/mol	0.344 ± 0.05 kcal/mol	1.4 ± 0.056 kcal/mol
SAGGSAGGSAMEITITVPKENEEEVLEAAKKALEELGIEEVKVEKLEDGTYKVTARVKPGLSAGGSAGGSAG [r3_335_TrROS_Hall]	0.219 ± 0.14 kcal/mol	0.325 ± 0.12 kcal/mol	0.361 ± 0.2 kcal/mol
SAGGSAGGSAMIEISEEELEKLLAETPEEEAKEVKIERIPDIGLINVTIPSGKVIKVKIKESAGGSAGGSAG [r3_291_JUSTAS]	1.43 ± 0.077 kcal/mol	-0.241 ± 0.11 kcal/mol	0.911 ± 0.086 kcal/mol
SAGGSAGGSAMIETTVSFDPSTGTVTTTTTYTDPNGGYTKSSTTVTPVPTPAPPPPAAPNRVSAGGSAGGSA [r18_361_JUSTAS]	0.582 ± 0.067 kcal/mol	0.409 ± 0.029 kcal/mol	0.551 ± 0.094 kcal/mol
SAGGSAGGSAMITTPKGERFEVPLRLTPDGRLEVLVVTDRPDDPEVRELAERLARELAERLSAGGSAGGSAG [r3_163_TrMRF]	0.394 ± 0.17 kcal/mol	0.506 ± 0.11 kcal/mol	0.484 ± 0.14 kcal/mol
SAGGSAGGSAMIVVPVDLVRERLDELVFRGEDGVEYRAEVRVFEVGDRPVAVIDLRPLDEDGSAGGSAGGSA [r18_447_TrMRF]	0.994 ± 0.047 kcal/mol	0.467 ± 0.025 kcal/mol	0.823 ± 0.048 kcal/mol
SAGGSAGGSAMKFPKGAKIEIVVTEDKVYVRIKTPGGKEIEVEMTLEELKKLGFEVEIVEEESAGGSAGGSA [r18_125_TrROS_Hall]	2.27 ± 0.061 kcal/mol	1.75 ± 0.086 kcal/mol	2.19 ± 0.15 kcal/mol
SAGGSAGGSAMKIELTVPPGEEAELEARAKALAEAEGVEVVSVSKSPEGTYTMTVLNTVPPESAGGSAGGSA [r18_351_JUSTAS]	-0.164 ± 0.19 kcal/mol	0.532 ± 0.058 kcal/mol	0.317 ± 0.098 kcal/mol
SAGGSAGGSAMKIVEWNEETGELTIELPDGTKITLKVENGEITEVKVEPLPPVPPDLPELKSAGGSAGGSAG [r3_406_TrROS_Hall]	2.45 ± 0.16 kcal/mol	0.537 ± 0.15 kcal/mol	2.24 ± 0.24 kcal/mol

Sequence	folding stability dG unfold [1]	folding stability dG unfold [2]	folding stability dG unfold [3]
SAGGSAGGSAMKIVKIEVVENEDGEKYVKIEIELENGEKIEITLPLEELENMSLEELLKLLKSAGGSAGGSA [r18_129_TrROS_Hall]	3.94 ± 0.17 kcal/mol	2.94 ± 0.18 kcal/mol	3.68 ± 0.12 kcal/mol
SAGGSAGGSAMKIVKITTTQLPNGTTKVTVTFSDGSTKTVTIPPNQPGKSAEEVAKKVLLESAGGSAGGSAG [r3_368_JUSTAS]	3.37 ± 0.054 kcal/mol	1.8 ± 0.055 kcal/mol	2.96 ± 0.087 kcal/mol
SAGGSAGGSAMKPGEVIEIEITDKETGKKIKAEIVLKDGKLYIKIYNENGELIAEIEIEIKDSAGGSAGGSA [r18_264_TrROS_Hall]	3.4 ± 0.12 kcal/mol	2.83 ± 0.2 kcal/mol	3.42 ± 0.14 kcal/mol
SAGGSAGGSAMKTYTLEQIEELLKSLPEEEIEEVKIEEKEGKKVIYVKTKDGREIEIVVEPSAGGSAGGSAG [r3_291_TrROS_Hall]	3.19 ± 0.052 kcal/mol	2.86 ± 0.2 kcal/mol	2.98 ± 0.13 kcal/mol
SAGGSAGGSAMKVALVERPDGSPFLLVFDPDRPGVALLRPLDTDEVEVLPSELLKNLKITASAGGSAGGSAG [r3_451_TrMRF]	0.68 ± 0.13 kcal/mol	-0.509 ± 0.17 kcal/mol	0.344 ± 0.1 kcal/mol
SAGGSAGGSAMKVGEEVEVTVRIKVDGKEYEVKAKATLDEDGNVTLEVEIKAKEGKVEIEIESAGGSAGGSA [r18_428_TrROS_Hall]	2.15 ± 0.14 kcal/mol	3.42 ± 0.26 kcal/mol	2.63 ± 0.13 kcal/mol
SAGGSAGGSAMKVITLPENADINKVIEAVEAGSPILVKIVDPKSSKTTDLPLPSKEAVEKLSAGGSAGGSAG [r3_362_JUSTAS]	-0.394 ± 0.18 kcal/mol	-0.468 ± 0.17 kcal/mol	-0.33 ± 0.15 kcal/mol
SAGGSAGGSAMKVLVTVTLTSPDGTKTTLTEEADPAELKGVLEAALPWTVETVTVYPAEELLSAGGSAGGSA [r18_107_JUSTAS]	0.509 ± 0.12 kcal/mol	1.35 ± 0.051 kcal/mol	1.04 ± 0.089 kcal/mol
SAGGSAGGSAMKYKVTVTTTPPDGTTTTTPTVVDFKSKEEIEEYVKKKAPKDTKVEVEIEPESAGGSAGGSA [r18_60_JUSTAS]	0.0584 ± 0.22 kcal/mol	-0.228 ± 0.085 kcal/mol	0.0447 ± 0.19 kcal/mol
SAGGSAGGSAMKYTVTVTLPNGTTLTLDVGTETEEEAVSETKKLIAEKYPDVKGAKIDLTKESAGGSAGGSA [r18_434_JUSTAS]	2.52 ± 0.038 kcal/mol	1.88 ± 0.11 kcal/mol	2.33 ± 0.13 kcal/mol
SAGGSAGGSAMLENARPFPIDLPTKYRLRIVLPDGRVLELEYDPKSGVPRLRVVPVEEALKRSAGGSAGGSA [r18_247_TrMRF]	1.59 ± 0.033 kcal/mol	1.19 ± 0.012 kcal/mol	1.46 ± 0.036 kcal/mol
SAGGSAGGSAMLTIPVTTPEEARELAEELLRRGYLRVEPTEDGDVTVIHPDGVPTRILVPTESAGGSAGGSA [r18_126_TrMRF]	0.551 ± 0.11 kcal/mol	0.471 ± 0.043 kcal/mol	0.558 ± 0.059 kcal/mol
SAGGSAGGSAMLVIRVYFEDTGRVLTLTADSEEEALEAIKRLLPPGAKIKKVEIFEVSEEDLSAGGSAGGSA [r18_350_TrROS_Hall]	4.439 ± 0.041 kcal/mol	4.08 ± 0.071 kcal/mol	4.33 ± 0.058 kcal/mol
SAGGSAGGSAMNRYRILLLDPENGKPLVFELPGNMTPEEAKEAAEELAERFGVTVVAIEGFPSAGGSAGGSA [r18_322_TrMRF]	4.362 ± 0.021 kcal/mol	3.18 ± 0.044 kcal/mol	4.11 ± 0.057 kcal/mol
SAGGSAGGSAMPEEVKLRVVKVKVKEVEVETDENGEKRTRVKAEVVEEREITLPKEELEKLSAGGSAGGSAG [r3_121_TrROS_Hall]	1.04 ± 0.074 kcal/mol	2.35 ± 0.18 kcal/mol	1.76 ± 0.14 kcal/mol
SAGGSAGGSAMPFRVKVPPGSRVLVTRYLPGGLEREEVELSEDEDELVVEAESGVVEVRVLDSAGGSAGGSA [r18_124_TrMRF]	0.969 ± 0.28 kcal/mol	0.938 ± 0.07 kcal/mol	0.977 ± 0.21 kcal/mol
SAGGSAGGSAMPIKYLFPKDKSLEDILDEIIKKTGKPKSEIKNIKLEEIDDEEGFYVAYVESAGGSAGGSAG [r3_26_TrMRF]	1.13 ± 0.13 kcal/mol	1.36 ± 0.092 kcal/mol	1.36 ± 0.22 kcal/mol
SAGGSAGGSAMRINIKLPGVETESVEVDPEKGMITARLKFPEGRKVEISFFPDGNVKIHPVSAGGSAGGSAG [r3_348_TrROS]	0.751 ± 0.066 kcal/mol	1.14 ± 0.05 kcal/mol	0.898 ± 0.11 kcal/mol
SAGGSAGGSAMRLRLKVKPGEKVRIRVERDGKVYEFEVTVEEGADEIEIDLPPGVKRIEIEPSAGGSAGGSA [r18_124_TrROS_Hall]	3.8 ± 0.095 kcal/mol	2.76 ± 0.21 kcal/mol	3.62 ± 0.17 kcal/mol
SAGGSAGGSAMSEEEKKKKKPKLEIKVKVEFTVDENGTVRAKVTFEDGTTLEVEIKLPPELLSAGGSAGGSA [r18_192_TrROS_Hall]	1.49 ± 0.059 kcal/mol	1.92 ± 0.094 kcal/mol	1.7 ± 0.11 kcal/mol
SAGGSAGGSAMTLEEKALESEELKKKIEEAPPSTKLITFELPGGEKITFTKNPDGSVVLSPSAGGSAGGSAG [r3_124_JUSTAS]	1.41 ± 0.1 kcal/mol	0.941 ± 0.051 kcal/mol	1.2 ± 0.11 kcal/mol
